# Assay results as given in EP4722251.
# Legend:
# [1] = biological target: Human TFPI/His; assay: ELISA; fit not_stated; antibody as IgG; antigen as monomer; on the surface: target; avidity possible
# [2] = biological target: Recombinant human TFPI protein; assay: BLI; fit kinetic; antibody as IgG; antigen as not_told; on the surface: binder; avidity not_told; settings: 30.0 °C; for koff: pH 7.4
EC50 ([1]; pH 4.0) [ng/mL],EC50 ([1]; pH 4.5) [ng/mL],EC50 ([1]; pH 5.0) [ng/mL],EC50 ([1]; pH 5.5) [ng/mL],EC50 ([1]; pH 6.0) [ng/mL],EC50 ([1]; pH 6.5) [ng/mL],EC50 ([1]; pH 7.4) [ng/mL],"Koff Ratio (pH6.0/pH7.4) ([2]; pH 6.0, second pH 7.4)",koff [2] [s⁻¹],koff ([2]; second pH 6.0) [s⁻¹],Substance
16.5,4.94,4.83,5,6.1,4.9,4.25,0.9,4.01e-07,3.6e-07,Concizumab
5.87,3.15,3.97,2.18,3.19,3.87,4.01,–,–,–,Marstacimab
